Data published in article PMC9719539 (2022).
Read-outs that look alike come from different tables or passages of the source. Positions of bridges follow the written chain, without caps; N, C: chain ends. Non-standard residues stand in square brackets, D forms with d. No end group written: not given here.

B1: Biogen-αVβ1.5 Fab (Fab, V domains shown)
VH: EVQLVESGGGVVQPGRSLRLSCAASGFTFKYYGMHWVRQAPGKGLEWVASIWYDGSNKKYADSVKGRFTISRDNSKNTLYLQMNSLRAEDTAVYYCARGGPTRGDGTRVYYYGMDVWGQGTTVTVSS
VL: EIVMTQSPATLSVSPGERATLSCRASQSVSSNLAWYQQKPGQAPRLLIYSASTRATGIPARFSGSGSGTEFTLTISSLQSEDFAVYYCQQYYHHPFTFGGGTKVEIK
B2: integrin αVβ3 on intact cells (receptor)
chain 1: FNLDVDSPAEYSGPEGSYFGFAVDFFVPSASSRMFLLVGAPKANTTQPGIVEGGQVLKCDWSSTRRCQPIEFDATGNRDYAKDDPLEFKSHQWFGASVRSKQDKILACAPLYHWRTEMKQEREPVGTCFLQDGTKTVEYAPCRSQDIDADGQGFCQGGFSIDFTKADRVLLGGPGSFYWQGQLISDQVAEIVSKYDPNVYSIKYNNQLATRTAQAIFDDSYLGYSVAVGDFNGDGIDDFVSGVPRAARTLGMVYIYDGKNMSSLYNFTGEQMAAYFGFSVAATDINGDDYADVFIGAPLFMDRGSDGKLQEVGQVSVSLQRASGDFQTTKLNGFEVFARFGSAIAPLGDLDQDGFNDIAIAAPYGGEDKKGIVYIFNGRSTGLNAVPSQILEGQWAARSMPPSFGYSMKGATDIDKNGYPDLIVGAFGVDRAILYRARPVITVNAGLEVYPSILNQDNKTCSLPGTALKVSCFNVRFCLKADGKGVLPRKLNFQVELLLDKLKQKGAIRRALFLYSRSPSHSKNMTISRGGLMQCEELIAYLRDESEFRDKLTPITIFMEYRLDYRTAADTTGLQPILNQFTPANISRQAHILLDCGEDNVCKPKLEVSVDSDQKKIYIGDDNPLTLIVKAQNQGEGAYEAELIVSIPLQADFIGVVRNNEALARLSCAFKTENQTRQVVCDLGNPMKAGTQLLAGLRFSVHQQSEMDTSVKFDLQIQSSNLFDKVSPVVSHKVDLAVLAAVEIRGVSSPDHVFLPIPNWEHKENPETEEDVGPVVQHIYELRNNGPSSFSKAMLHLQWPYKYNNNTLLYILHYDIDGPMNCTSDMEINPLRIKISSLQTTEKNDTVAGQGERDHLITKRDLALSEGDIHTLGCGVAQCLKIVCQVGRLDRGKSAILYVKSLLWTETFMNKENQNHSYSLKSSASFNVIEFPYKNLPIEDITNSTLVTTNVTWGIQPAPMPVPVWVIILAVLAGLLLLAVLVFVMYRMGFFKRVRPPQEEQEREQLQPHENGEGNSET
chain 2: GPNICTTRGVSSCQQCLAVSPMCAWCSDEALPLGSPRCDLKENLLKDNCAPESIEFPVSEARVLEDRPLSDKGSGDSSQVTQVSPQRIALRLRPDDSKNFSIQVRQVEDYPVDIYYLMDLSYSMKDDLWSIQNLGTKLATQMRKLTSNLRIGFGAFVDKPVSPYMYISPPEALENPCYDMKTTCLPMFGYKHVLTLTDQVTRFNEEVKKQSVSRNRDAPEGGFDAIMQATVCDEKIGWRNDASHLLVFTTDAKTHIALDGRLAGIVQPNDGQCHVGSDNHYSASTTMDYPSLGLMTEKLSQKNINLIFAVTENVVNLYQNYSELIPGTTVGVLSMDSSNVLQLIVDAYGKIRSKVELEVRDLPEELSLSFNATCLNNEVIPGLKSCMGLKIGDTVSFSIEAKVRGCPQEKEKSFTIKPVGFKDSLIVQVTFDCDCACQAQAEPNSHRCNNGNGTFECGVCRCGPGWLGSQCECSEEDYRPSQQDECSPREGQPVCSQRGECLCGQCVCHSSDFGKITGKYCECDDFSCVRYKGEMCSGHGQCSCGDCLCDSDWTGYYCNCTTRTDTCMSSNGLLCSGRGKCECGSCVCIQPGSYGDTCEKCPTCPDACTFKKECVECKKFDRGALHDENTCNRYCRDEIESVKELKDTGKDAVNCTYKNEDDCVVRFQYYEDSSGKSILYVVEEPECPKGPDILVVLLSVMGAILLIGLAALLIWKLLITIHDRKEFAKFEEERARAKWDTANNPLYKEATSTFTNITYRGT
B3: integrin αVβ5 on intact cells (receptor)
chain 1: B2 chain 1
chain 2: GLNICTSGSATSCEECLLIHPKCAWCSKEDFGSPRSITSRCDLRANLVKNGCGGEIESPASSFHVLRSLPLSSKGSGSAGWDVIQMTPQEIAVNLRPGDKTTFQLQVRQVEDYPVDLYYLMDLSLSMKDDLDNIRSLGTKLAEEMRKLTSNFRLGFGSFVDKDISPFSYTAPRYQTNPCIGYKLFPNCVPSFGFRHLLPLTDRVDSFNEEVRKQRVSRNRDAPEGGFDAVLQAAVCKEKIGWRKDALHLLVFTTDDVPHIALDGKLGGLVQPHDGQCHLNEANEYTASNQMDYPSLALLGEKLAENNINLIFAVTKNHYMLYKNFTALIPGTTVEILDGDSKNIIQLIINAYNSIRSKVELSVWDQPEDLNLFFTATCQDGVSYPGQRKCEGLKIGDTASFEVSLEARSCPSRHTEHVFALRPVGFRDSLEVGVTYNCTCGCSVGLEPNSARCNGSGTYVCGLCECSPGYLGTRCECQDGENQSVYQNLCREAEGKPLCSGRGDCSCNQCSCFESEFGKIYGPFCECDNFSCARNKGVLCSGHGECHCGECKCHAGYIGDNCNCSTDISTCRGRDGQICSERGHCLCGQCQCTEPGAFGEMCEKCPTCPDACSTKRDCVECLLLHSGKPDNQTCHSLCRDEVITWVDTIVKDDQEAVLCFYKTAKDCVMMFTYVELPSGKSNLTVLREPECGNTPNAMTILLAVVGSILLVGLALLAIWKLLVTIHDRREFAKFQSERSRARYEMASNPLYRKPISTHTVDFTFNKFNKSYNGTVD

Assays:
[1] = target: T1, integrin α5β1 on intact cells (human, UniProt P08648 42-1049; P05556 21-798); assay: FACS
T1 sequence (P08648 42-1049, chain 1 of 2): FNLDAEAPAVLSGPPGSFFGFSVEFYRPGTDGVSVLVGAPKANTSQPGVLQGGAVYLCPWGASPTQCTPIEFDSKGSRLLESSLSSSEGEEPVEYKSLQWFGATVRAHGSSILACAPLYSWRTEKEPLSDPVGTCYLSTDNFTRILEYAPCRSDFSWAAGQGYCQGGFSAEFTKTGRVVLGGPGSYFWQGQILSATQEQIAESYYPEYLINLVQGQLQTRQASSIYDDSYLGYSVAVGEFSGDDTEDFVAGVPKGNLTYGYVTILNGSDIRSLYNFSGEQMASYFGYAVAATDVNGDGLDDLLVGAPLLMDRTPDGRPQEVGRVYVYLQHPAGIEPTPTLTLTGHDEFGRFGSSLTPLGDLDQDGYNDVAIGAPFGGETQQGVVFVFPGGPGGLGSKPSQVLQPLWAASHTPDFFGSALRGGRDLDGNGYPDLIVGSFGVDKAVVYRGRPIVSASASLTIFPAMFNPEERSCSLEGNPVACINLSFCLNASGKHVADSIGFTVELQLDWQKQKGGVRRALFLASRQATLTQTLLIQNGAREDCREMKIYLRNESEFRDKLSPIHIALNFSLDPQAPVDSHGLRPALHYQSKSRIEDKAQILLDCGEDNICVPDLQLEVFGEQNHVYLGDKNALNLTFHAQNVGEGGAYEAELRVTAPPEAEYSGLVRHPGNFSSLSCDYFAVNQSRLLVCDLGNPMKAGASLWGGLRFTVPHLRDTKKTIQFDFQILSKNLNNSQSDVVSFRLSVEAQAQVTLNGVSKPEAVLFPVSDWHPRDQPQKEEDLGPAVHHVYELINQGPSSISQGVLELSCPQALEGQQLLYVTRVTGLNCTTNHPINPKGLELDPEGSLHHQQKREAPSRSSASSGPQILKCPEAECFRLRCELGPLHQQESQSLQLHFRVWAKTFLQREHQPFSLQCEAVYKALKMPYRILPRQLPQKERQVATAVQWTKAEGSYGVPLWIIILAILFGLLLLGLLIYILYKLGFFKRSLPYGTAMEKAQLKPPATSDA
T1 sequence (P05556 21-798, chain 2 of 2): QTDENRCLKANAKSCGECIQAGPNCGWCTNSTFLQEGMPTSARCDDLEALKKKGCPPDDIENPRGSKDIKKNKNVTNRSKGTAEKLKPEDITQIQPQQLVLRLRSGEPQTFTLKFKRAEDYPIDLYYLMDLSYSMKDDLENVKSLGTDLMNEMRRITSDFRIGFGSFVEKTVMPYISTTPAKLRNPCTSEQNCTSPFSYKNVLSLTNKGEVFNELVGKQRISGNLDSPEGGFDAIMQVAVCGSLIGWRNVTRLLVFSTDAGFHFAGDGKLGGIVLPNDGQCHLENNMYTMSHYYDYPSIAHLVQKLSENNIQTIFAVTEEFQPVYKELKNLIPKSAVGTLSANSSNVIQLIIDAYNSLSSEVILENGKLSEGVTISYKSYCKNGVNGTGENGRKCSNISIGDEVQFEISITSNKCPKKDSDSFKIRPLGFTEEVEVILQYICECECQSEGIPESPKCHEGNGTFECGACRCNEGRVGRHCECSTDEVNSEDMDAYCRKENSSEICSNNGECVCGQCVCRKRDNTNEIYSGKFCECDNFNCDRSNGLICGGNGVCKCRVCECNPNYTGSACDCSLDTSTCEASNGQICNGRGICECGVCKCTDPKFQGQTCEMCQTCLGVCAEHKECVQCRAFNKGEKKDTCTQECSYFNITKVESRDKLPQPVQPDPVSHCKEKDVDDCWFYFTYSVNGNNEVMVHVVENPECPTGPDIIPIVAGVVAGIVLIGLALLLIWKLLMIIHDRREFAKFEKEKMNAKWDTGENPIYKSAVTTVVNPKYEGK

[2] = target: T1, integrin α5β1 on intact cells; assay: FACS; remark: listed apart in the source
[3] = target: B2; assay: FACS
[4] = target: integrin αVβ1 on intact cells (human, UniProt P06756 31-1048; P05556 21-798); assay: FACS
Chain of integrin αVβ1 on intact cells (P05556 21-798, one chain of several): as the sequence (P05556 21-798, chain 2 of 2) above

IPI-αVβ5.9 [5] = assay: FACS; L15 medium
IPI-αVβ3.13 [6] = assay: FACS; L15 medium
IPI-αVβ5.9 [7] = assay: FACS; L15 + 1 mM Mn2+
IPI-αVβ3.13 [8] = assay: FACS; L15 + 1 mM Mn2+

Row | Binder | Kd (IPI-αVβ5.9 [5]) [nM] | Kd (IPI-αVβ5.9 [7]) [nM] | Kd (IPI-αVβ3.13 [8]) [nM] | further results
1 | cyclo(RGD[dF]K) [cyclo[Arg-Gly-Asp-D-Phe-Lys] (cRGDfK)] | – | – | – | Kd [1]: 86 nM
2 | ACRGDGWCGK (disulfide 2-8 (inferred)) [cyclic-ACRGDGWCGK] | – | – | – | Kd [2]: 3700 nM
3 | B1 | – | – | – | Kd [3]: 78000 nM; Kd [4]: 24 nM
4 | B2 | 10000 | 16000 | 23 | Kd (IPI-αVβ3.13 [6]): 56 nM
5 | B3 | 43 | 24 | 50000 | –
